Laboratory results published in article doi:10.1101/2020.12.20.423708 (bioRxiv, 2020).

B1: CM32 recombinant plasma mAb (subject P3, Lin.4) (antibody, V domains shown)
VH: QVQLVQSGPEVKKPGASVKVSCQTSGYSFSDHYLHWVRQTPGQGFEWMGWIKPKSGATNSADNFQDRVTMTADASVNTAYMELSSLRPDDTAVYYCARGHRIPSAISDKYDFWGQGTLVTVSS
VL: QSVLTQPASVSASPGQSITISCTGTSSDVGGYDYVSWYQHHPDNAPKLLIFEVSNRPSGVSNRFSGSKSGNAASLTISGLLAEDEADYFCTSYSSGRTPYVFGTGTKVTVL
B2: CM30 recombinant plasma mAb (subject P3, Lin.2) (antibody, V domains shown)
VH: QVQLVESGGGLVKPGGSLRLSCAASGFTFSDYYMSWIRQAPGKGLEWVSSIDGSTSYTKYADSVKGRFTISRDNAKNSLYLQMNSLRAEDTAVYYCARVGPAVAGSPFDSWGQGTLVTVSS
VL: EIVLTQSPATLSLSPGERATLSCRASQSVSTYLAWYQQKPGQAPRLLIFDASNRATGIPARFSGSGSGTDFTLTISSLEPEDFAVYYCQQRSNWLFSFGPGTKVDIK
B3: CM31 recombinant plasma mAb (subject P3, Lin.3) (antibody, V domains shown)
VH: QVTLKESGPTLVKPTQTLTLTCTVSGFSLSTNGVGVAWVRQPPGKALEWLGLIYWDDAQRYGPSLKSRLTITKDTSKNQVVLTLTNMDPVDTGTYYCSHVWVNSTHRQIDYWGQGTLVTVSS
VL: QPVLTQPPSSSASPGESARLTCTLPSDFNVGSYNIYWYQKRPGSPPRYLLYYYSDSDKGQGSGVPSRFSGSKDASANTGILLISGLQSEDEADYYCMIWPINGVVFGGGTKLTVL
B4: CM29 recombinant plasma mAb (subject P3, Lin.1) (antibody, V domains shown)
VH: QVQLVESGGGVVQPGRSLRLSCAASGFTLSKYGMHWVRQAPDKGLEWVALMSYDGSIKYYGDSVKGRFTVSRDSSKNTLYLQMNNLRDDDTAVYFCARGAMAGNSSFDHWGQGTLVTVSS
VL: not shown

Biological target: SARS-CoV-2 spike ectodomain, HexaPro variant (SARS-CoV-2, Wuhan-Hu-1 (MN908947), stabilised)
Assay: BLI

Binder | Kd [nM]
B1 | 6
B2 | 0.8
B3 | 37.7
B4 | 6.6
